pKd: −log10 of the molar value.
Tests used:
Assay in all cases: MST
[1] = target: R663H human β-cardiac 25-hep HMM (UniProt P12883)
[2] = target: R663H human β-cardiac sS1 (human) (UniProt P12883)
[3] = target: WT human β-cardiac sS1 (short S1) (human) (UniProt P12883)

Row | Substance | pKd [1] | pKd [2] | pKd [3]
1 | C0-C7 fragment of myosin binding protein-C (MyBP-C) (domain or fragment) | 6.05 |  | 
2 | proximal S2 of human β-cardiac myosin (from UniProt P12883 1-1935) (domain or fragment) |  | 4.30 | 4.17

Source: publication doi:10.1101/543413
